Assay results as given in the supplement of paper PMC10724198.
± gives the standard deviation of the averaged measurements.

System: Saccharomyces cerevisiae
Experiment: protein stability index of tFT-peptide fusion (C-terminal peptide) (PSI (0-1 scale)); higher = more stable (slower turnover)
Details: genetic background: wild type; temperature: 30 C
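Also: PSI is a weighted mean of sequencing reads over stability bins, variants kept only with over 10 reads, mCherry proximal and sfGFP distal, peptide attached via GGGS linker.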

Row | Sequence | protein stability index
1 | SLPRPPPPASTP | 0.623 ± 0.0068
2 | SLPSPSPPSHPL | 0.705 ± 0.033
3 | SLPSSVAFLFPR | 0.802 ± 0.17
4 | SLQTRANTGLWT | 0.689 ± 0.034
5 | SLREIIRKSLGL | 0.677 ± 0.022
6 | SLRILFDLRISL | 0.605 ± 0.031
7 | SLRLFSPILSSL | 0.684 ± 0.011
8 | SLRSSLFSPHHC | 0.649 ± 0.044
9 | SLRSSRSRIKKG | 0.624 ± 0.086
10 | SLRWVHVRGVLQ | 0.702 ± 0.013
11 | SLSDYKAYSKTI | 0.65 ± 0.013
12 | SLSGPDIRLKPF | 0.673 ± 0.046
13 | SLSGPRCFLHSP | 0.681 ± 0.039
14 | SLVLPPRPFPPF | 0.746 ± 0.058
15 | SLVLPSFSLFSR | 0.728 ± 0.028
16 | SLVLSFPLLSLP | 0.697 ± 0.025
17 | SLYPPPAPRASP | 0.773 ± 0.036
18 | SLYVRRCKEASK | 0.6894 ± 0.0023
19 | SMSRSPPPSPPL | 0.669 ± 0.01
20 | SMWKQIRVYGLW | 0.636 ± 0.028
21 | SNHIAPAFKIKQ | 0.678 ± 0.0085
22 | SNHTIIGNVVHF | 0.7131 ± 0.0056
23 | SNHYYFILSHFA | 0.661 ± 0.0093

Row | Sequence | protein stability index
24 | SNPLRPHLPPHF | 0.714 ± 0.054
25 | SNTKLIGGFFRD | 0.646 ± 0.1
26 | SPALSPDPSPSP | 0.704 ± 0.037
27 | SPALVRLSLPRP | 0.86 ± 0.14
28 | SPAPPPGVPPSR | 0.687 ± 0.03
29 | SPDCSLSPSVSG | 0.684 ± 0.029
30 | SPFCGVRFRFCY | 0.632 ± 0.064
31 | SPFGFPPPSPPA | 0.6843 ± 0.003
32 | SPFPLSSLRPLP | 0.7552 ± 0.0022
33 | SPGPSPPSPIGP | 0.61967 ± 0.00044
34 | SPGTFLSLRMSI | 0.703 ± 0.015
35 | SPHLPPLPDPSP | 0.576 ± 0.0069
36 | SPISATISPSFR | 0.728 ± 0.018
37 | SPIVLTYHYLCR | 0.666 ± 0.0087
38 | SPLGPLGPPSET | 0.693 ± 0.052
39 | SPLLYPPPSTSI | 0.715 ± 0.042
40 | SPLPLFSPCPPP | 0.693 ± 0.014
41 | SPLPPPSLPRPP | 0.641 ± 0.017
42 | SPLRHLPGPSFP | 0.696 ± 0.012
43 | SPLSLPTRSCLL | 0.7075 ± 0.0066
44 | SPLTSSSLPPRT | 0.691 ± 0.032
45 | SPPAPACTSYSL | 0.7018 ± 0.0019
46 | SPPATPWPPDLR | 0.627 ± 0.051

Row | Sequence | protein stability index
47 | SPPFLPCLFHAS | 0.687 ± 0.048
48 | SPPFLPVPASSL | 0.709 ± 0.027
49 | SPPGYPGNPSPL | 0.662 ± 0.021
50 | SPPHSLSSSCSL | 0.811 ± 0.05
51 | SPPLFCSPPISP | 0.719 ± 0.043
52 | SPPLHPPPPFPL | 0.769 ± 0.047
53 | SPPLPACSPPLA | 0.715 ± 0.035
54 | SPPLPHLPTPTP | 0.603 ± 0.14
55 | SPPLPPLPSVAF | 0.637 ± 0.16
56 | SPPLPPPARLPA | 0.615 ± 0.019
57 | SPPLPRLSPLPN | 0.6863 ± 0.0012
58 | SPPPAPSHPPSP | 0.73 ± 0.05
59 | SPPPGSRTFAFR | 0.697 ± 0.042
60 | SPPPIVPPPSPP | 0.662 ± 0.12
61 | SPPPLCCPPLAP | 0.728 ± 0.023
62 | SPPPLLLPLSPP | 0.727 ± 0.047
63 | SPPPLNTFPPLP | 0.691 ± 0.025
64 | SPPPLRFPPPPP | 0.763 ± 0.13
65 | SPPPNPPRPSSR | 0.768 ± 0.014
66 | SPPPPASPPAPP | 0.648 ± 0.062
67 | SPPPPHVPLSPS | 0.712 ± 0.032
68 | SPPPPPALPEYQ | 0.6877 ± 0.0012
69 | SPPPPPPPPPPL | 0.757 ± 0.041

Row | Sequence | protein stability index
70 | SPPPPPPRPLTP | 0.672 ± 0.027
71 | SPPPPSPRFPSP | 0.678 ± 0.017
72 | SPPPPTPLPPPP | 0.6757 ± 0.0047
73 | SPPPPVPSAGPL | 0.7 ± 0.042
74 | SPPPSPPPPLPP | 0.5649 ± 0.0049
75 | SPPRHPPPASPA | 0.7128 ± 0.0035
76 | SPPSPSTPPARP | 0.747 ± 0.15
77 | SPPSSPHPPPRT | 0.693 ± 0.01
78 | SPPVPLPYLASP | 0.663 ± 0.061
79 | SPQPSLPFLPPL | 0.668 ± 0.026
80 | SPRPHRHLPFRP | 0.709 ± 0.0072
81 | SPRPIKCRPLLI | 0.62 ± 0.018
82 | SPRPPPLIIAST | 0.664 ± 0.031
83 | SPRPPSLPYAPP | 0.701 ± 0.019
84 | SPRPTRCGQNSM | 0.6897 ± 0.0053
85 | SPRPYFSLVLFF | 0.539 ± 0.0032
86 | SPRRSLPPAGFT | 0.71 ± 0.017
87 | SPRVRVYLTDTG | 0.7306 ± 0.0042
88 | SPSCFFIFALPC | 0.605 ± 0.037
89 | SPSCSLLCPLPR | 0.72 ± 0.028
90 | SPSIRFILWGPI | 0.678 ± 0.041
91 | SPSLSPSPPSPS | 0.6699 ± 0.0039
92 | SPSPLPTTPPTC | 0.641 ± 0.0077

Row | Sequence | protein stability index
93 | SPSPPHPLTTTL | 0.711 ± 0.075
94 | SPSPPLASPPPL | 0.686 ± 0.016
95 | SPSRPTPNTIGP | 0.615 ± 0.031
96 | SPSSFVTFVVLE | 0.652 ± 0.098
97 | SPSSPPPPPPPA | 0.833 ± 0.033
98 | SPSTRWPTVQTR | 0.662 ± 0.0098
99 | SPTAPPPRPFPP | 0.679 ± 0.042
100 | SPTPPRMPLSLP | 0.677 ± 0.024
101 | SPTRFLPVPTPF | 0.75 ± 0.052
102 | SPTSTILKSYTR | 0.659 ± 0.086
103 | SPVPRPGTTRRP | 0.721 ± 0.031
104 | SPVQHPKHIQPG | 0.656 ± 0.008
105 | SPVRRGRCRLSG | 0.728 ± 0.1
106 | SQFGLGCCQRST | 0.723 ± 0.069
107 | SQGAGKCIIIAA | 0.561 ± 0.015
108 | SQGSTLRGIEEP | 0.661 ± 0.048
109 | SRAARLLPKLLI | 0.589 ± 0.055
110 | SRAPRDVFSPPM | 0.72 ± 0.019
111 | SRASPPCSLLSS | 0.696 ± 0.051
112 | SRCRASMPPLRA | 0.684 ± 0.034
113 | SRERRPKVFILR | 0.669 ± 0.027
114 | SRETRRRENPAK | 0.677 ± 0.19
115 | SRFAAGSRVLFL | 0.758 ± 0.044

Row | Sequence | protein stability index
116 | SRFSRLHPAFPV | 0.759 ± 0.014
117 | SRGLPRLLCPPP | 0.747 ± 0.025
118 | SRGLVRGPMSGR | 0.661 ± 0.053
119 | SRGRSFFAGVGG | 0.722 ± 0.042
120 | SRGVSRGGGEVF | 0.651 ± 0.027
121 | SRGWCGRVVWGK | 0.729 ± 0.01
122 | SRHFPLGTVHVP | 0.756 ± 0.065
123 | SRHRVGLPIQIF | 0.526 ± 0.022
124 | SRKIRTTLQESK | 0.7219 ± 0.0071
125 | SRLGVGGGLCSW | 0.714 ± 0.11
126 | SRLKAPADTDPN | 0.7 ± 0.015
127 | SRLSPPFPLFSL | 0.505 ± 0.036
128 | SRMRRGCTGCEC | 0.671 ± 0.061
129 | SRPPLLLLSSGA | 0.6583 ± 0.0059
130 | SRPRLSDLFPPP | 0.706 ± 0.11
131 | SRRVSVSTSWNP | 0.718 ± 0.014
132 | SRSCCPGVRVRF | 0.709 ± 0.03
133 | SRSCRHGELKFA | 0.718 ± 0.0097
134 | SRSGASLRAARG | 0.722 ± 0.043
135 | SRSGVSTRGVPC | 0.709 ± 0.0073
136 | SRSWLPPVFPRV | 0.807 ± 0.059
137 | SRTLLRVSHLSL | 0.699 ± 0.02
138 | SRVAEIERVQWL | 0.655 ± 0.038

Row | Sequence | protein stability index
139 | SRVQYVLDRSVF | 0.649 ± 0.0099
140 | SRVTGPGRADGT | 0.691 ± 0.011
141 | SRVTVLGGWRRG | 0.701 ± 0.034
142 | SRWFEFSFLSQV | 0.707 ± 0.049
143 | SRYERLFSDNRG | 0.718 ± 0.019
144 | SSALPPLLAFFL | 0.6808 ± 0.0046
145 | SSALSLVSSFLP | 0.705 ± 0.05
146 | SSASLIPPPPVP | 0.693 ± 0.053
147 | SSCRHYRSPINH | 0.764 ± 0.069
148 | SSDLSNVQTQRL | 0.708 ± 0.065
149 | SSFFTTGAPRPP | 0.674 ± 0.061
150 | SSGFVWVGVCVG | 0.5 ± 0.0069
151 | SSGRRFVVVVQG | 0.572 ± 0.026
152 | SSGSLITIASPF | 0.745 ± 0.024
153 | SSHHGSSEDDHQ | 0.6597 ± 0.001
154 | SSHHYSCPLVDT | 0.667 ± 0.058
155 | SSIHSLRQVISI | 0.614 ± 0.051
156 | SSLDTPSFDSSL | 0.675 ± 0.018
157 | SSLLSPLRSAFL | 0.71 ± 0.066
158 | SSLMGGLSAYPG | 0.694 ± 0.011
159 | SSLNLLIHTAPL | 0.739 ± 0.023
160 | SSLSFAPAPPFV | 0.698 ± 0.035
